These results are taken from patent publication US20220119792.

In series [1] the target is AH6-DEVD-hGH expressed from pAPT-Y-AH6-DEVD-hGH-Lacuv5-rev-CASP3.
In series [2] the target is KH6-DEVD-hGH expressed from pAPT-Y-KH6-DEVD-hGH-Lacuv5-rev-CASP3.
In series [3] the target is HAK-DEVD-hGH expressed from pAPT-Y-HAK-DEVD-hGH-Lacuv5-rev-CASP3.
Series [4] has as its target NH6-DEVD-hGH expressed from pAPT-Y-NH6-DEVD-hGH-Lacuv5-rev-CASP3.
The target of series [5] is H6-DEVD-hGH expressed from pETDuet-H6-DEVD-hGH-T7-rev-CASP3.
Chain of H6-DEVD-hGH expressed from pETDuet-H6-DEVD-hGH-T7-rev-CASP3 (chain, as listed by the source): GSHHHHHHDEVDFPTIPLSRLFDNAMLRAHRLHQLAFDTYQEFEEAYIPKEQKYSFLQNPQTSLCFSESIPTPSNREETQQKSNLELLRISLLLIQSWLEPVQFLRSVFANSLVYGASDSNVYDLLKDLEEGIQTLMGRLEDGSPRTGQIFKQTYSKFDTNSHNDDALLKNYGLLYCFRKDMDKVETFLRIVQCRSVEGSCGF
The target of series [6] is H6-DEVD-hGH expressed from pAPT-Y-H6-DEVD-hGH-Lacuv5-rev-CASP3.
Chain of H6-DEVD-hGH expressed from pAPT-Y-H6-DEVD-hGH-Lacuv5-rev-CASP3 (chain, as listed by the source): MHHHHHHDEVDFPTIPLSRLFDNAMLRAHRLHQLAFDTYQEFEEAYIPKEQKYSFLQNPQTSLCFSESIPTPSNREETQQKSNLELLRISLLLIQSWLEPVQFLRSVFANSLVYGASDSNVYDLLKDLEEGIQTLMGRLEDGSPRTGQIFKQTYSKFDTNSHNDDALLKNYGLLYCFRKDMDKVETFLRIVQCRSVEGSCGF
In series [7] the target is DH6-DEVD-hGH expressed from pAPT-Y-DH6-DEVD-hGH-Lacuv5-rev-CASP3.
Chain of DH6-DEVD-hGH expressed from pAPT-Y-DH6-DEVD-hGH-Lacuv5-rev-CASP3 (chain, as listed by the source): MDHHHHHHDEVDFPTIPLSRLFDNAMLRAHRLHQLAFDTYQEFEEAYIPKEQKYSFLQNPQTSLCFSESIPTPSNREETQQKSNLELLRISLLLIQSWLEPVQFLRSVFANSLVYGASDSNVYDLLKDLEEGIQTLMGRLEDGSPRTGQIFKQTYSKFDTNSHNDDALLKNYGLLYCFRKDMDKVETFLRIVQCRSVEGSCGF

Chain of HAK-DEVD-hGH expressed from pAPT-Y-HAK-DEVD-hGH-Lacuv5-rev-CASP3 (chain, as listed by the source): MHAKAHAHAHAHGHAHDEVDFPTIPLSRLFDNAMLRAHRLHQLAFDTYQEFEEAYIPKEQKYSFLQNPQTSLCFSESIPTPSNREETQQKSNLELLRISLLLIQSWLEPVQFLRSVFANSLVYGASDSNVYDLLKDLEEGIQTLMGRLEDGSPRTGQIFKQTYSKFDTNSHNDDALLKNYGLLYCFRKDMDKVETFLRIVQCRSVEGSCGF
Chain of KH6-DEVD-hGH expressed from pAPT-Y-KH6-DEVD-hGH-Lacuv5-rev-CASP3 (chain, as listed by the source): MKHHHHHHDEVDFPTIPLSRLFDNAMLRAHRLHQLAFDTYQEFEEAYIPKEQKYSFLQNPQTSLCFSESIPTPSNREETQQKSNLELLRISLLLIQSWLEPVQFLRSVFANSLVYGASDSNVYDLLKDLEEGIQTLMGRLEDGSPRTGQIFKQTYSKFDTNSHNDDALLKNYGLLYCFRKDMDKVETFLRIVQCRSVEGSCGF
Chain of NH6-DEVD-hGH expressed from pAPT-Y-NH6-DEVD-hGH-Lacuv5-rev-CASP3 (chain, as listed by the source): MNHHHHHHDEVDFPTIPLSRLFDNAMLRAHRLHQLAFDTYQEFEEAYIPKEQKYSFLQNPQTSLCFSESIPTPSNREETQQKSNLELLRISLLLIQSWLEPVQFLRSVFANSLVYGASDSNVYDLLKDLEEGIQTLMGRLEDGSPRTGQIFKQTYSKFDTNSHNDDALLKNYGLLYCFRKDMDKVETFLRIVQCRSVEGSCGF
Chain of AH6-DEVD-hGH expressed from pAPT-Y-AH6-DEVD-hGH-Lacuv5-rev-CASP3 (chain, as listed by the source): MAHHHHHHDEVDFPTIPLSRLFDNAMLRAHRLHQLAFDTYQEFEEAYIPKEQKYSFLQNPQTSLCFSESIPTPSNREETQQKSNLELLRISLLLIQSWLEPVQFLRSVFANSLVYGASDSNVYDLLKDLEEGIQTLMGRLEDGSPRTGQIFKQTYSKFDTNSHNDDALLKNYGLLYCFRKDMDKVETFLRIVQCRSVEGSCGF

B1: reverse caspase-3 (protein)
chain: MIETDSGVDDDMACHKIPVEADFLYAYSTAPGYYSWRNSKDGSWFIQSLCAMLKQYADKLEFMHILTRVNRKVATEFESFSFDATFHAKKQIPCIVSMLTKELYFYHDEVDGENTENSVDSKSIKNLEPKIIHGSESMDSGISLDNSYKMDYPEMGLCIIINNKNFHKSTGMTSRSGTDVDAANLRETFRNLKYEVRNKNDLTREEIVELMRDVSKEDHSKRSSFVCVLLSHGEEGIIFGTNGPVDLKKITNFFRGDRCRSLTGKPKLFIIQACRGTELDCGIETD
In the case of B1, the “cleavage of synthetic tag (Western blot, co-expression in E. coli)” value in series [1], in series [2], in series [3], in series [4], in series [6] and in series [7] was 99.30% or more of the synthetic tag was cleaved in each case. In addition, in series [5], the “cleavage of N-terminal methionine and synthetic tag (Western blot, co-expression in E. coli)” value was 96.12% of the N-terminal methionine of the growth hormone protein and the synthetic tag was cleaved.
